Assay results published in patent US20150239980A1 (NEOTOPE BOSCIENCES, published 2015).

Key:
[1] = target: T1, recombinant hMCAM-His (human, UniProt P43121 24-559); experiment: competitive ELISA on hMCAM-His, competitor biotinylated rodent or chimeric 2107; Expt. #1; vs rodent 2107
T1 construct: not shown: His tag
T1 chain: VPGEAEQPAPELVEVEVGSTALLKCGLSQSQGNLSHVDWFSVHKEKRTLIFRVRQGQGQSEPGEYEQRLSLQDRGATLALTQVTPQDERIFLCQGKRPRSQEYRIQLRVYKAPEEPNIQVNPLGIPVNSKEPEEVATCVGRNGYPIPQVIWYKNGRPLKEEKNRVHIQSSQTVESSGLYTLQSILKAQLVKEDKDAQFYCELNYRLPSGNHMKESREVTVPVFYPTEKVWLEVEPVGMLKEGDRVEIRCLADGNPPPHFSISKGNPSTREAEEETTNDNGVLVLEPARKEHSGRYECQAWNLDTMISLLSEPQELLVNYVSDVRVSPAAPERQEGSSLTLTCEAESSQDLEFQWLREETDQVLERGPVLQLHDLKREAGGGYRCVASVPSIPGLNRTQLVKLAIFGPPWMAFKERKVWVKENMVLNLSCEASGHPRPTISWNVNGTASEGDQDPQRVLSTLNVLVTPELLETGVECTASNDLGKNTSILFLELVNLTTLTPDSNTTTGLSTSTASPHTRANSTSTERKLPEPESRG
Summary of the method: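 Plates coated with recombinant hMCAM-His and casein-blocked; biotinylated rodent or chimeric antibody at subsaturating level competed by 3× serial concentrations of unlabeled humanized, rodent or chimeric antibody. Bound biotinylated antibody detected with streptavidin-HRP/TMB at OD450; competitor IC50 fitted.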

[2] = target: T1, recombinant hMCAM-His; experiment: competitive ELISA on hMCAM-His, competitor biotinylated rodent or chimeric 2107; vs rodent 2107
Method: (§1) ELISA plates were coated with recombinant hMCAM-His, and blocked with casein buffer to prevent non-specific binding. Biotinylated rodent or chimeric antibody was added at a subsaturating concentration, in the presence or absence of 3× increasing concentrations of unlabeled competitor (humanized antibody, rodent, or chimeric). After washing to remove unbound antibody, streptavidin HRP was added to allow detection of the biotinylated antibody. The ELISA was developed with TMB substrate and the OD450 was measured. The IC50 of the unlabeled competitor was determined using the GraphPad Prism5 software.

[3] = target: T1, recombinant hMCAM-His; experiment: ForteBio Octet Red, hMCAM-His analyte; Expt. #2; vs rodent 2107
Method: (§2) The affinities were measured using the ForteBio Octet Red. Anti-human Fc sensors were used to capture the humanized antibodies, and several concentrations of hMCAMHis analyte were used to determine the affinity using a 1:1 fitting model.

[4] = target: T1, recombinant hMCAM-His; experiment: summary of ForteBio and competitive ELISA on hMCAM-His; vs rodent 2107
Method: as §1, §2

[5] = target: T1, recombinant hMCAM-His; experiment: ForteBio Octet Red, hMCAM-His analyte; Expt. #1; vs rodent 2107
Summary of the method: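 Humanized antibodies were captured on anti-human Fc sensors, then exposed to several concentrations of hMCAMHis analyte; affinity was derived by a 1:1 fitting model.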

[6] = target: T1, recombinant hMCAM-His; experiment: competitive ELISA on hMCAM-His, competitor biotinylated rodent or chimeric 2107; Expt. #2; vs rodent 2107
Method: as §1

[7] = target: T2, human MCAM (melanoma cell adhesion molecule) expressed on transfected CHO cells (human, UniProt P43121 24-646); experiment: laminin/FACS on hMCAM CHO cells, competitor laminin 411; Expt#2; reference row with 1.0 is chimeric 2107
T2 construct: also called hMCAM; CD146
T2 chain: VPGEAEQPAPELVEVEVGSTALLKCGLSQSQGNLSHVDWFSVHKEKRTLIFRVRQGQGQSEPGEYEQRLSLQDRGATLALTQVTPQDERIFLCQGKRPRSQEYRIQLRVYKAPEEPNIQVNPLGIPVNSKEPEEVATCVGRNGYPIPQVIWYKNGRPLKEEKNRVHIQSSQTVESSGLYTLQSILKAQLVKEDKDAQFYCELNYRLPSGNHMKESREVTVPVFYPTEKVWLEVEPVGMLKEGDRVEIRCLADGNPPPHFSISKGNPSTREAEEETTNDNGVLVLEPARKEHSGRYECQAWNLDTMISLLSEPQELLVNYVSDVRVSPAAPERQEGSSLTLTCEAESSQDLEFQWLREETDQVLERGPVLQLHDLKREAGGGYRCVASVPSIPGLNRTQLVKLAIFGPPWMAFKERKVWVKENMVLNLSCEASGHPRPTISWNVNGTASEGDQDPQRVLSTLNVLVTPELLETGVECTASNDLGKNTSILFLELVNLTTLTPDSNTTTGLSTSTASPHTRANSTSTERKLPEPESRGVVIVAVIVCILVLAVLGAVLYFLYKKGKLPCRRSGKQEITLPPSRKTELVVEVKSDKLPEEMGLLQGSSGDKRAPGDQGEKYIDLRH
Method: (§3) Following incubation for 30-45 minutes, the cells were washed and anti-laminin conjugated to AF650 (NovusBio) was added to detect the bound laminin. The cells were run on a flow cytometer to measure the laminin binding signal.

[8] = target: T1, recombinant hMCAM-His; experiment: ForteBio Octet Red, hMCAM-His analyte; Forte column 1; vs rodent 2107
Method: as §2

[9] = target: T1, recombinant hMCAM-His; experiment: ForteBio Octet Red, hMCAM-His analyte; Forte column 2; vs rodent 2107
Method: as §2

[10] = target: T2, human MCAM (melanoma cell adhesion …); experiment: laminin/FACS on hMCAM CHO cells, competitor laminin 411; Expt#1; vs rodent 2107
Method: as §3

[11] = target: T2, human MCAM (melanoma cell adhesion …); experiment: summary of laminin blocking assay on hMCAM CHO cells, competitor laminin 411; vs rodent 2107
Method: as §3

B1: h2107_VH1 + h2107_VL2 (antibody, human IgG1, V domains shown)
VH: QVTLKESGPVLVKPTETLTLTCTVSGFSLTSNGVSWVRQPPGKALEWIAAISSGGSTYYNSAFKSRLTISRDTSKSQVVLTMTNMDPVDTATYYCARHRPFYFDYWGQGTLVTVSS
VL: DIQMTQSPSSLSASVGDRVTITCKGSQNIYKSLAWFQLKPGKVPKLLIYDANSLQTGIPSRFSGSGSGTDFTLTISSLQPEDVATYYCQQYYSGYTFGGGTKVEIK
notes: also called VH1VL2
- fold over rodent (competitive ELISA) [1]: 1.29 fold
- fold over rodent (competitive ELISA) [2]: 1.4 fold
- fold over rodent (Forte affinity) [3]: 3.4 fold
- fold reduction in affinity compared to the rodent [4]: < 3 fold
- fold over rodent (Forte affinity) [5]: 2.37 fold
- fold over rodent (competitive ELISA) [6]: 1.32 fold
- fold over rodent (blocking, laminin/FACS) [7]: 1.4 fold
- fold over rodent (Forte affinity) [8]: 3 fold
- fold over rodent (Forte affinity) [9]: 2.8 fold
- fold over rodent (blocking, laminin/FACS) [10]: 1.9 fold
- fold reduction in potency compared to the rodent [11]: < 3 fold

B2: h2107_VH2 + h2107_VL2 (antibody, human IgG1, V domains shown)
VH: QVTLKESGPVLVKPTETLTLTCTVSGFSLTSNGVSWVRQPPGKALEWIAAISSGGSTYYNSAFKSRLSISRDTSKSQVVLTMTNMDPVDTATYYCARHRPFYFDYWGQGTLVTVSS
VL: DIQMTQSPSSLSASVGDRVTITCKGSQNIYKSLAWFQLKPGKVPKLLIYDANSLQTGIPSRFSGSGSGTDFTLTISSLQPEDVATYYCQQYYSGYTFGGGTKVEIK
notes: also called h2107VH2VL2; VH2VL2
- fold over rodent (competitive ELISA) [1]: 1.32 fold
- fold over rodent (competitive ELISA) [2]: 1.3 fold
- fold over rodent (Forte affinity) [3]: 3.58 fold
- fold reduction in affinity compared to the rodent [4]: < 3 fold
- fold over rodent (Forte affinity) [5]: 2.54 fold
- fold over rodent (competitive ELISA) [6]: 1.48 fold
- fold over rodent (blocking, laminin/FACS) [7]: 1.5 fold
- fold over rodent (Forte affinity) [8]: 2.7 fold
- fold over rodent (Forte affinity) [9]: 2.9 fold
- fold over rodent (blocking, laminin/FACS) [10]: 1.4 fold
- fold reduction in potency compared to the rodent [11]: < 3 fold
